Measured values taken from patent publication US20090111742A1, “Use of fgf-21 and thiazolidinedione for treating type 2 diabetes” (priority 2004, published 2009).

Key:
[1] = test system: male ob/ob mice; assay: Ob/ob mouse model, blood glucose levels; format: in vivo; settings: 1 hour post dose
Method: The Ob/ob mouse model is an animal model for hyperglycemia, insulin resistance and obesity. Male ob/ob mice are used to monitor plasma glucose levels and triglyceride levels after treatment with FGF-21, rosiglitazone, and FGF-21 in combination with rosiglitazone. The test groups of male ob/ob, mice (7 weeks old) are: FGF-21, 5 μg/day; rosiglitazone, 30 mg/kg/day; FGF-21, 3 ug/day, +rosiglitazone, 10 mg/kg/day; FGF-21, 5 ug/day, +rosiglitazone, 30 mg/kg/day; FGF-21, 5 ug/day, +rosiglitazone 10 mg/kg/day; s.c. vehicle control (0.9% NaCl, 0.1 ml/mouse); and, p.o. vehicle control (CMC/SLS/Povidone, 0.2 ml/mouse). FGF-21 is administered s.c. in 0.1 ml, and rosiglitazone is administered p.o. in 0.2 ml.
The animals are dosed daily for 14 days. Blood glucose levels are measured daily, 1 hour post dosing, using a standard protocol.

[2] = test system: male db/db mice; assay: Db/db mouse model, blood glucose levels; format: in vivo; settings: 1 hour post dose
Text: (§1) The genetically diabetic C57BL/KsJ (db/db) mouse provides an animal model of type 2 diabetes, characterized by obesity, hyperglycemia and insulin resistance with hyperinsulinemia. (Sharma et al., Am J Physiol Renal Physiol. 284(6):F1138-b 44, (2003)).
(§2) In the present study, male db/db mice, 9 weeks of age are used. The animals are randomized by body weight and blood glucose levels into groups of six mice per group. Group 1: vehicle 1: CMC/SLS/Povidone, p.o. […] The animals are dose for 14 days.
Blood glucose is measured daily, 1 hour post dosing.

[3] = test system: male db/db mice; assay: Db/db mouse model, plasma triglycerides; format: in vivo
Text: as §1, §2
Plasma triglycerides are measured on days 7 and 14, 1 hour post dosing.

[4] = test system: differentiated 3T3-L1 cells; assay: Glucose uptake in mouse 3T3-L1 adipocytes (2-deoxy-D-[14C]glucose accumulation); format: cell-based; settings: 72 hr. treatment
Method: 3T3-Li cells are obtained from the American Type Culture Collection (ATCC, Rockville, Md.). Cells are cultured in growth medium (GM) containing 10% calf serum in Dulbecco's modified Eagle's medium. For standard adipocyte differentiation, two days after cells reach confluency (referred as day 0), the cells are exposed to differentiation medium (DM) containing 10% fetal bovine serum, 5 μg/ml of insulin, 1 μM dexamethasone, and […] isobutylmethylxanthine, for 48 h and then are exposed to medium containing 10% fetal bovine serum, 5 μg/ml insulin for an additional 48 h. Cells are then maintained in post differentiation medium containing 10% fetal bovine serum.
Glucose Transport Assay—FGF-21 is added to the differentiated 3T3-L1 cells in 96 well plates at 0, 0.016, 0.08, 0.4, 2, 10, or 50.0 nM, and rosiglitazone is added to a final concentration of 1 μM, Table 1. For comparison, rosiglitazone alone is added at the concentrations indicated in Table 2 or in combination with FGF-21 at 1 μg/ml. The plates are incubated at 37° C. for 72 hours.
Hexose uptake, as assayed by the accumulation of 2-deoxy-D-[^14C]glucose, is measured as follows: 24 hours prior to the assay, the wells are rinsed twice with PBS and DMEM (high glucose, 1% antibiotic/antimycotic solution, 2 mM glutamine), 0.1% BSA plus FGF-21 is added. The plates are incubated at 37° C. for 72 hours. The cells are then washed twice with KRP buffer (136 mM NaCl, 4.7 mM KCl, 10 mM NaPO4, 0.9 mM CaCl2, 0.9 MM MgSO4, 0.1% BSA, pH 7.4), and then KRP buffer containing 1% BSA, 2-deoxy-D-glucose, 100 μM, 0.1 μCi/well 2-deoxy-D-[^14C]glucose is added and the plates are incubated at 37° C. for one hour. Cytochalasin B is added to stop further glucose uptake. Uptake is measured on a Microbeta plate reader.

Molecule: CN(CCOc1ccc(CC2SC(=O)NC2=O)cc1)c1ccccn1 (stereo not drawn) [Rosi., rosiglitazone, reference compound]
- Blood Glucose Levels in ob/ob mice ([1]; Rosi. 30 mg/kg/day p.o., day 0): 225 mg/dL
- Blood Glucose Levels in ob/ob mice ([1]; Rosi. 30 mg/kg/day p.o., day 2): 125 mg/dL
- Blood Glucose Levels in ob/ob mice ([1]; Rosi. 30 mg/kg/day p.o., day 4): 150 mg/dL
- Blood Glucose Levels in ob/ob mice ([1]; Rosi. 30 mg/kg/day p.o., day 6): 135 mg/dL
- Blood Glucose Levels in ob/ob mice ([1]; Rosi. 30 mg/kg/day p.o., day 8): 115 mg/dL
- Blood Glucose Levels in ob/ob mice ([1]; Rosi. 30 mg/kg/day p.o., day 10): 125 mg/dL
- Blood Glucose Levels in ob/ob mice ([1]; Rosi. 30 mg/kg/day p.o., day 12): 120 mg/dL
- Blood Glucose Levels in ob/ob mice ([1]; Rosi. 30 mg/kg/day p.o., day 14): 115 mg/dL
- Blood Glucose Levels in db/db mice ([2]; Rosi. 10 mg/kg/day p.o., day 0): 265 mg/dL
- Blood Glucose Levels in db/db mice ([2]; Rosi. 10 mg/kg/day p.o., day 2): 370 mg/dL
- Blood Glucose Levels in db/db mice ([2]; Rosi. 10 mg/kg/day p.o., day 4): 350 mg/dL
- Blood Glucose Levels in db/db mice ([2]; Rosi. 10 mg/kg/day p.o., day 6): 340 mg/dL
- Blood Glucose Levels in db/db mice ([2]; Rosi. 10 mg/kg/day p.o., day 8): 265 mg/dL
- Blood Glucose Levels in db/db mice ([2]; Rosi. 10 mg/kg/day p.o., day 10): 315 mg/dL
- Blood Glucose Levels in db/db mice ([2]; Rosi. 10 mg/kg/day p.o., day 12): 360 mg/dL
- Blood Glucose Levels in db/db mice ([2]; Rosi. 10 mg/kg/day p.o., day 14): 350 mg/dL
- Plasma Triglycerides ([3]; Rosi. 10 mg/kg/day, Day 7, 1 hour post dose): 135 mg/dL
- Plasma Triglycerides ([3]; Rosi. 10 mg/kg/day, Day 14, 1 hour post dose): 85 mg/dL

B1: FGF-21: mature human 181 amino acid FGF-21 polypeptide (SEQ ID NO:1), recombinantly expressed (protein)
chain: HPIPDSSPLLQFGGQVRQRYLYTDDAQQTEAHLEIREDGTVGGAADQSPESLLQLKALKPGVIQILGVKTSRFLCQRPDGALYGSLHFDPEACSFRELLLEDGYNVYQSEAHGLPLHLPGNKSPHRDPAPRGPARFLPLPGLPPALPEPPGILAPQPPDVGSSDPLSMVGPSQGRSPSYAS
modifications: homo sapiens
- 14C-Deoxyglucose (CPM) ([4]; FGF-21 alone 0.4 nM): 1300 CPM
- 14C-Deoxyglucose (CPM) ([4]; FGF-21 alone 2.0 nM): 2500 CPM
- 14C-Deoxyglucose (CPM) ([4]; FGF-21 alone 10.0 nM): 3100 CPM
- 14C-Deoxyglucose (CPM) ([4]; FGF-21 alone 50.0 nM): 3500 CPM
- 14C-Deoxyglucose (CPM) ([4]; FGF-21 alone .016 nM): 900 CPM
- 14C-Deoxyglucose (CPM) ([4]; FGF-21 alone .08 nM): 1000 CPM
- Blood Glucose Levels in ob/ob mice ([1]; FGF-21 5 μg/day s.c., day 0): 225 mg/dL
- Blood Glucose Levels in ob/ob mice ([1]; FGF-21 5 μg/day s.c., day 2): 175 mg/dL
- Blood Glucose Levels in ob/ob mice ([1]; FGF-21 5 μg/day s.c., day 4): 150 mg/dL
- Blood Glucose Levels in ob/ob mice ([1]; FGF-21 5 μg/day s.c., day 6): 140 mg/dL
- Blood Glucose Levels in ob/ob mice ([1]; FGF-21 5 μg/day s.c., day 8): 140 mg/dL
- Blood Glucose Levels in ob/ob mice ([1]; FGF-21 5 μg/day s.c., day 10): 160 mg/dL
- Blood Glucose Levels in ob/ob mice ([1]; FGF-21 5 μg/day s.c., day 12): 180 mg/dL
- Blood Glucose Levels in ob/ob mice ([1]; FGF-21 5 μg/day s.c., day 14): 225 mg/dL
- Blood Glucose Levels in db/db mice ([2]; FGF-21 3 μg/day s.c., day 0): 265 mg/dL
- Blood Glucose Levels in db/db mice ([2]; FGF-21 3 μg/day s.c., day 2): 270 mg/dL
- Blood Glucose Levels in db/db mice ([2]; FGF-21 3 μg/day s.c., day 4): 280 mg/dL
- Blood Glucose Levels in db/db mice ([2]; FGF-21 3 μg/day s.c., day 6): 300 mg/dL
- Blood Glucose Levels in db/db mice ([2]; FGF-21 3 μg/day s.c., day 8): 290 mg/dL
- Blood Glucose Levels in db/db mice ([2]; FGF-21 3 μg/day s.c., day 10): 325 mg/dL
- Blood Glucose Levels in db/db mice ([2]; FGF-21 3 μg/day s.c., day 12): 345 mg/dL
- Blood Glucose Levels in db/db mice ([2]; FGF-21 3 μg/day s.c., day 14): 345 mg/dL
- Plasma Triglycerides ([3]; FGF-21 3 ug/day, Day 7, 1 hour post dose): 165 mg/dL
- Plasma Triglycerides ([3]; FGF-21 3 ug/day, Day 14, 1 hour post dose): 120 mg/dL
